Experimental findings from article PMC6179904 (Developmental Cell, 2018) are described below.

B1: c-SRC (Myr-GSNKSKPKDASQ) fluorescein-labeled myristoylated peptide (peptide)
peptide: Myristoyl-GSNKSKPKDASQ
modifications: also: fluorescein label, position not given here
B2: fluorescein-labeled myristoylated FMNL1 peptide (Myr-GNAAGSAEQPAG-Fluorescin-amide) (peptide)
peptide: Myristoyl-GNAAGSAEQPAG-{Fluorescin-NH2}
B3: fluorescein-labeled myristoylated FMNL3 peptide (Myr-GNLESAEGVPGE-Fluorescin-amide) (peptide)
peptide: Myristoyl-GNLESAEGVPGE-{Fluorescin-NH2}

Where no end group is shown, it is not given here. The star is where a group is joined. Fluorescin = fluorescein label at the C-terminus, before the amide; Myristoyl = CCCCCCCCCCCCCC(=O)*

The target of the experiment is full-length UNC119A (UniProt Q13432 1-240). The experiment in a line: fluorescence polarisation. (In general: Polarisation of emitted light reports the rotation of a fluorescent probe.)
B1 had a Kd of 125 ± 69 nM.
B2 yielded a Kd of 10.1 ± 3.5 nM.
The same measure for B3: 856 ± 156 nM.

For orientation: Kd means the free concentration of one partner at which half of the binding sites on the other are occupied at equilibrium, for simple one-to-one binding.
